Data from the supplement of paper PMC10567573.

B1: OAS1 (parent)
chain: LTVYAWERGSMKTHFNTAQGFRTV
B2: ATE1 (parent)
chain: YGSFHQQYWLDGKIIAVGVIDILP

Variants of: B1
Assay: protein stability index of a GFP-peptide fusion (GPS, HEK-293T) (PSI 1-6); higher = more stable
Settings: c terminus: a fixed tail appended
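Further: lentivirally expressed fusions sorted by FACS into six bins by GFP to DsRed ratio, PSI derived from sequencing read proportions per bin multiplied by bin number.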

First: T2S
Second: T2V
The protein stability index of the first is lower: 2.21 for the first, 2.23 for the second.

First: A18L
Second: Q19I
The protein stability index of the first is higher: 4.32 for the first, 3.54 for the second.

Going from Q19C to Q19D, the protein stability index rises from 3.17 to 4.39.

Going from K12W to T13V, the protein stability index falls from 2.8 to 2.68.

Going from T13W to T13N, the protein stability index falls from 3.26 to 2.25.

First: F15Y
Second: G9I
The protein stability index of the first is higher: 2.28 for the first, 1.86 for the second.

Going from G9C to M11V, the protein stability index falls from 3.73 to 2.09.

Compared with M11E, L1C is lower in protein stability index: 2.27 for the first, 1.74 for the second.

First: W6P
Second: R8A
The protein stability index of the first is lower: 1.69 for the first, 2.38 for the second.

First: R8M
Second: E7M
The protein stability index of the first is lower: 2.73 for the first, 3.48 for the second.

Compared with N16E, Y4N is lower in protein stability index: 2.21 for the first, 1.94 for the second.

First: H14F
Second: H14L
The protein stability index of the first is lower: 2.8 for the first, 2.88 for the second.

Going from H14T to V24D, the protein stability index falls from 2.86 to 1.63.

Compared with V24R, V24Q is higher in protein stability index: 1.69 for the first, 2.06 for the second.

Compared with V3D, V3C is lower in protein stability index: 2.57 for the first, 2.02 for the second.

Going from V3F to F21K, the protein stability index falls from 3.04 to 2.27.

First: F21T
Second: T17R
The protein stability index of the first is lower: 1.96 for the first, 2.38 for the second.

First: T17C
Second: T17W
The protein stability index of the first is lower: 1.78 for the first, 2.1 for the second.

Compared with S10I, S10G is higher in protein stability index: 1.91 for the first, 2.28 for the second.

Variant S10E has a protein stability index of 3.28.

Variants of: B2
Assay: as above
Settings: c terminus: a fixed tail appended

Going from D11S to D11F, the protein stability index rises from 2.47 to 3.33.

First: D11G
Second: D11N
The protein stability index of the first is lower: 1.06 for the first, 3.47 for the second.

Compared with D11K, D11P is lower in protein stability index: 3.39 for the first, 2.24 for the second.

Compared with D11V, D11I is lower in protein stability index: 2.38 for the first, 2.1 for the second.

Compared with D11T, D11H is lower in protein stability index: 3.15 for the first, 2.8 for the second.

First: D11W
Second: D11A
The protein stability index of the first is lower: 2.72 for the first, 4.43 for the second.

Compared with I20W, I20E is higher in protein stability index: 1.38 for the first, 1.65 for the second.

First: I20Y
Second: I20M
The protein stability index of the first is lower: 1.81 for the first, 2.59 for the second.

First: I20F
Second: I20R
The protein stability index of the first is higher: 4.08 for the first, 2.48 for the second.

Compared with I20A, I20S is lower in protein stability index: 3.4 for the first, 2.38 for the second.

Going from I20L to I20C, the protein stability index falls from 3.46 to 1.22.

Compared with I20P, I20D is lower in protein stability index: 2.53 for the first, 2.41 for the second.

Going from Y8D to Y8I, the protein stability index rises from 2.78 to 3.92.

First: Y8K
Second: Y8F
The protein stability index of the first is lower: 2.35 for the first, 3.62 for the second.

Compared with Y8W, Y8P is higher in protein stability index: 2.58 for the first, 2.93 for the second.

Going from Y8N to Y8H, the protein stability index falls from 3.57 to 2.57.

Going from Y8Q to H5A, the protein stability index falls from 3.04 to 2.77.

First: H5R
Second: H5P
The protein stability index of the first is lower: 2.13 for the first, 2.32 for the second.

First: H5M
Second: H5F
The protein stability index of the first is lower: 1.77 for the first, 2.61 for the second.

First: H5Q
Second: H5I
The protein stability index of the first is higher: 2.37 for the first, 1.49 for the second.

Going from H5D to H5Y, the protein stability index falls from 4.47 to 3.26.

Compared with G18I, G18T is higher in protein stability index: 3.47 for the first, 4.01 for the second.

Going from G18R to G18K, the protein stability index falls from 3.77 to 3.6.

Going from G18Y to G18A, the protein stability index rises from 1.96 to 3.13.

First: G18C
Second: G18L
The protein stability index of the first is higher: 4.11 for the first, 1.9 for the second.

Going from G18E to G18Q, the protein stability index rises from 2.28 to 3.22.

Compared with G18F, G18N is lower in protein stability index: 2.53 for the first, 2.31 for the second.

First: G18W
Second: G18S
The protein stability index of the first is lower: 2.81 for the first, 3.06 for the second.

First: G18P
Second: L23E
The protein stability index of the first is higher: 2.39 for the first, 1.4 for the second.

Compared with L23A, L23D is lower in protein stability index: 4.34 for the first, 2.88 for the second.

First: L23I
Second: L23M
The protein stability index of the first is higher: 2.34 for the first, 1.78 for the second.

Compared with L23K, L23H is lower in protein stability index: 2.49 for the first, 2 for the second.

First: L23G
Second: Q7D
The protein stability index of the first is higher: 2.94 for the first, 2.72 for the second.

Going from Q7W to Q7R, the protein stability index falls from 4.02 to 2.99.

First: Q7G
Second: Q7C
The protein stability index of the first is higher: 3.84 for the first, 3.33 for the second.

Compared with Q7F, Q7S is higher in protein stability index: 2.02 for the first, 4.74 for the second.

Going from Q7L to Q7I, the protein stability index rises from 2.01 to 2.67.

Compared with Q7P, Q7T is higher in protein stability index: 2.94 for the first, 3.51 for the second.

Compared with Q7H, Q7M is lower in protein stability index: 2.4 for the first, 1.76 for the second.

First: Q7A
Second: K13E
The protein stability index of the first is higher: 4.84 for the first, 2.45 for the second.

Compared with K13F, K13W is lower in protein stability index: 2.76 for the first, 1.94 for the second.

First: K13V
Second: K13N
The protein stability index of the first is lower: 2.63 for the first, 2.78 for the second.

Going from K13P to K13A, the protein stability index falls from 2.99 to 2.3.

Compared with K13I, K13R is higher in protein stability index: 1.1 for the first, 2 for the second.

Going from K13M to K13T, the protein stability index falls from 3.74 to 2.54.

Compared with K13C, K13D is lower in protein stability index: 2.44 for the first, 2.19 for the second.

Compared with K13L, A16V is higher in protein stability index: 3.1 for the first, 3.31 for the second.

Compared with A16Q, A16C is lower in protein stability index: 3.07 for the first, 1.6 for the second.

First: A16G
Second: A16S
The protein stability index of the first is higher: 2.13 for the first, 1.87 for the second.

Going from A16Y to A16R, the protein stability index rises from 2.13 to 3.32.

Going from A16P to A16F, the protein stability index falls from 2.38 to 2.21.

First: A16T
Second: A16M
The protein stability index of the first is higher: 2.7 for the first, 2 for the second.

Going from Y1E to Y1F, the protein stability index rises from 1.92 to 3.22.

First: Y1H
Second: Y1K
The protein stability index of the first is lower: 2.79 for the first, 3.54 for the second.

First: Y1N
Second: Y1S
The protein stability index of the first is lower: 1.77 for the first, 4.07 for the second.

Compared with Y1C, Y1M is lower in protein stability index: 3.63 for the first, 1.87 for the second.

Going from Y1L to I15M, the protein stability index rises from 1.73 to 2.51.

Compared with I15T, I15G is higher in protein stability index: 3.23 for the first, 3.26 for the second.

First: I15Y
Second: I15E
The protein stability index of the first is lower: 2.45 for the first, 3.12 for the second.

First: I15L
Second: I15R
The protein stability index of the first is higher: 2.75 for the first, 1.91 for the second.

First: I15S
Second: I15A
The protein stability index of the first is lower: 2.5 for the first, 2.57 for the second.

Compared with I15V, I15D is lower in protein stability index: 4.05 for the first, 2.53 for the second.

Compared with I15K, I15C is lower in protein stability index: 1.79 for the first, 1.53 for the second.

First: I15H
Second: I15N
The protein stability index of the first is higher: 3.57 for the first, 2.59 for the second.
